Experimental data published in patent US20240116985A1, “STAPLED PEPTIDES AND METHODS THEREOF” (priority 2020, published 2024).
Starred links: 1 amine or outer side, 2 acyl side, 3 side chain; linkers in the order of their positions; H or OH if unused. Positions of bridges follow the written chain, without caps; N, C: chain ends. Non-standard residues stand in square brackets, D forms with d. Primed or numbered codes have the meaning given here. PyrS2″ = (S)-3-amino-1-((pent-4-en-1-yloxy)carbonyl)pyrrolidine-3-carboxylic acid (stapling residue), C=CCCCOC(=O)N1CC[C@@](N[*:1])(C(=O)[*:2])C1; B5(18) = 2,2-bis(4-pentenyl)glycine (2-amino-2-(pent-4-en-1-yl)hept-6-enoic acid), stitching residue, C=CCCCC(CCCC=C)(N[*:1])C(=O)[*:2]; B5(5) = 2,2-bis(4-pentenyl)glycine, 2-amino-2-(pent-4-en-1-yl)hept-6-enoic acid (stitching residue), C=CCCCC(CCCC=C)(N[*:1])C(=O)[*:2]; TfeGA = (S)-2-amino-3-((carboxymethyl)(2,2,2-trifluoroethyl)amino)propanoic acid, O=C([C@H](CN(CC(=O)[*:3])CC(F)(F)F)N[*:1])[*:2]; B5(3) = 2,2-bis(4-pentenyl)glycine (stitching residue), C=CCCCC(CCCC=C)(N[*:1])C(=O)[*:2]; B5 = 2-amino-2-(pent-4-en-1-yl)hept-6-enoic acid, C=CCCCC(CCCC=C)(N[*:1])C(=O)[*:2]; Dip = N[C@H](C(=O)O)C(c1ccccc1)c1ccccc1; Phe(2-Cl) = N[C@@H](Cc1ccccc1Cl)C(=O)O; Bta = N[C@@H](Cc1csc2ccccc12)C(=O)O; αAllylPro = C=CC[C@@]1(C(=O)O)CCCN1; tBuAla = CC(C)(C)C[C@H](N)C(=O)O; 3Thi = N[C@@H](Cc1ccsc1)C(=O)O; Cha = N[C@@H](CC1CCCCC1)C(=O)O; S8 = C=CCCCCCC[C@](C)(N)C(=O)O; Phg = N[C@H](C(=O)O)c1ccccc1

B1: I-717 (peptide)
peptide: Ac-[αAllylPro]DL[B5]DEAAFN[S8][3Thi][Bta]-NH2
modifications: staple 1-4, 4-11
B2: I-715 (peptide)
peptide: Ac-[αAllylPro]DI[B5(3)]DEAAFN[S8]F[Bta]-NH2
modifications: staple 1-4, 4-11
B3: I-721 (peptide)
peptide: Ac-[αAllylPro]DI[B5]DEAAFN[S8][3Thi][Bta]-NH2
modifications: staple 1-4, 4-11
B4: I-722 (peptide)
peptide: Ac-[αAllylPro]DI[B5]DEAA[Cha]Q[S8]F[Bta]Q-NH2
modifications: staple 1-4, 4-11
B5: I-725 (peptide)
peptide: Ac-[αAllylPro]DI[B5]DEAA[Dip]Q[S8]F[Bta]Q-NH2
modifications: staple 1-4, 4-11
B6: I-714 (peptide)
peptide: Ac-[αAllylPro]DI[B5(3)]DEAAFN[S8]F[Bta]-NH2
modifications: staple 1-4, 4-11
B7: I-726 (peptide)
peptide: Ac-[αAllylPro]DI[B5]DEAA[Phg]Q[S8]F[Bta]Q-NH2
modifications: staple 1-4, 4-11
B8: I-712 (peptide)
peptide: Ac-[αAllylPro]D[tBuAla][B5(3)]DEAAFN[S8]F[Bta]-NH2
modifications: staple 1-4, 4-11
B9: I-719 (peptide)
peptide: Ac-[αAllylPro]D[tBuAla][B5]DEAAFN[S8][3Thi][Bta]-NH2
modifications: staple 1-4, 4-11
B10: I-713 (peptide)
peptide: Ac-[αAllylPro]D[tBuAla][B5(3)]DEAAFN[S8]F[Bta]-NH2
modifications: staple 1-4, 4-11
B11: I-720 (peptide)
peptide: Ac-[αAllylPro]DI[B5]DEAAFN[S8][3Thi][Bta]-NH2
modifications: staple 1-4, 4-11
B12: I-1008 (peptide)
peptide: Ac-[αAllylPro]D[tBuAla][B5(18)]D[TfeGA]FAFN[PyrS2″][Phe(2-Cl)][Bta]Q-NH2
modifications: staple 1-4, 4-11
B13: I-1017 (peptide)
peptide: Ac-[αAllylPro]D[tBuAla][B5(18)]DDAAFS[PyrS2″][Phe(2-Cl)][Bta]Q-NH2
modifications: staple 1-4, 4-11
B14: I-1007 (peptide)
peptide: Ac-[αAllylPro]D[tBuAla][B5(18)]D[TfeGA]LAFN[PyrS2″][Phe(2-Cl)][Bta]Q-NH2
modifications: staple 1-4, 4-11
B15: I-1011 (peptide)
peptide: Ac-[αAllylPro]D[tBuAla][B5(18)]D[TfeGA]KAFN[PyrS2″][Phe(2-Cl)][Bta]Q-NH2
modifications: staple 1-4, 4-11
B16: I-1010 (peptide)
peptide: Ac-[αAllylPro]D[tBuAla][B5(5)]D[TfeGA]IAFN[PyrS2″][Phe(2-Cl)][Bta]Q-NH2
modifications: staple 1-4, 4-11
B17: I-1004 (peptide)
peptide: Ac-[αAllylPro]D[tBuAla][B5(18)]D[TfeGA]ASFN[PyrS2″][Phe(2-Cl)][Bta]Q-NH2
modifications: staple 1-4, 4-11
B18: I-1002 (peptide)
peptide: Ac-[αAllylPro]D[tBuAla][B5(18)]D[TfeGA]ALFN[PyrS2″][Phe(2-Cl)][Bta]Q-NH2
modifications: staple 1-4, 4-11
B19: I-1016 (peptide)
peptide: Ac-[αAllylPro]D[tBuAla][B5(18)]DNAAFT[PyrS2″][Phe(2-Cl)][Bta]S-NH2
modifications: staple 1-4, 4-11

Molecular target: full-length beta-Catenin (Uniprot ID P35222) (Homo sapiens (Human)) (UniProt P35222)
Experiment: fluorescence polarization competition; full-length beta-catenin with 5FAM-labeled TCF4 residues 10-53 probe as competitor
Target sequence in this assay (P35222 whole entry, the tested form may be a part): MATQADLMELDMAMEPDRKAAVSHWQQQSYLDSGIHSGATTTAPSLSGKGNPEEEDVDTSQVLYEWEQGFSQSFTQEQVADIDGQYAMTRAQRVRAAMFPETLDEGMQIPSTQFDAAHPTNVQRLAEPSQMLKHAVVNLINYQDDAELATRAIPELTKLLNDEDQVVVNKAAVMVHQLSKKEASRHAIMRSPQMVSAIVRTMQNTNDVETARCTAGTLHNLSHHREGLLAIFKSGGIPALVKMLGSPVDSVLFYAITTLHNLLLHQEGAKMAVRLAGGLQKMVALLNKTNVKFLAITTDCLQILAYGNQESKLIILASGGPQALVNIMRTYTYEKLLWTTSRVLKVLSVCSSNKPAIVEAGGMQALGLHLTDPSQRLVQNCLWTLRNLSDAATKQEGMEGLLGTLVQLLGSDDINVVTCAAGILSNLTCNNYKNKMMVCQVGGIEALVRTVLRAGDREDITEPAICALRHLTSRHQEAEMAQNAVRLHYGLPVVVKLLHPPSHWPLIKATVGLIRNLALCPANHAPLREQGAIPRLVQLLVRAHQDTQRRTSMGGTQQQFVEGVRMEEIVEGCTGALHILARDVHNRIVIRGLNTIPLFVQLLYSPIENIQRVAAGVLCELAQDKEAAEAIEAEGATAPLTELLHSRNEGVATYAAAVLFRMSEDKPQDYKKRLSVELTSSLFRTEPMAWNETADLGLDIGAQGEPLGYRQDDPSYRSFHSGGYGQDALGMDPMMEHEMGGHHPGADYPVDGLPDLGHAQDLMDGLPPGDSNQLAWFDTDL

EC50 [nM] | Binder
39 | B1
60.5 | B2
46 | B3
1130 | B4
5000 | B5
131 | B6
5000 | B7
92 | B8
38 | B9
70 | B10
75 | B11

Molecular target: Bcat-Halo (UniProt P35222)
Sequence (P35222 whole entry): as the sequence (P35222 whole entry, the tested form may be a part) above
Experiment: NanoBRET Abs IC50, Bcat-Halo/TCF4-Luc in HEK293 cells

IC50 [nM] | Binder
14000 | B12
8900 | B13
24900 | B14
20800 | B15
13300 | B16
10600 | B17
29800 | B18
21400 | B19

Molecular target: full-length beta-Catenin (Uniprot ID P35222) (Homo sapiens (Human)) (UniProt P35222)
Experiment: fluorescence polarization competition; 10 nM full-length beta-catenin + 10 nM 5FAM-TCF4(10-53) probe
Target sequence in this assay (P35222 whole entry, the tested form may be a part): as above

IC50 [nM] | Binder
9 | B12
5 | B13
6 | B14
5 | B15
8 | B16
5 | B17
9 | B18
8 | B19

Molecular target: full-length beta-Catenin (Uniprot ID P35222) (Homo sapiens (Human)) (UniProt P35222)
Experiment: fluorescence polarization competition; peptide titrated against full-length beta-catenin + 5FAM-TCF4(10-53)
Target sequence in this assay (P35222 whole entry, the tested form may be a part): as above

IC50 [nM] | Binder
39 | B1
60.5 | B2
46 | B3
1130 | B4
5000 | B5
131 | B6
5000 | B7
92 | B8
38 | B9
70 | B10
75 | B11

Molecular target: full-length beta-Catenin (Uniprot ID P35222) (Homo sapiens (Human)) (UniProt P35222)
Experiment: fluorescence polarization competition; displaces 5FAM-TCF4(10-53) from full-length beta-catenin
Target sequence in this assay (P35222 2-781 limits assumed): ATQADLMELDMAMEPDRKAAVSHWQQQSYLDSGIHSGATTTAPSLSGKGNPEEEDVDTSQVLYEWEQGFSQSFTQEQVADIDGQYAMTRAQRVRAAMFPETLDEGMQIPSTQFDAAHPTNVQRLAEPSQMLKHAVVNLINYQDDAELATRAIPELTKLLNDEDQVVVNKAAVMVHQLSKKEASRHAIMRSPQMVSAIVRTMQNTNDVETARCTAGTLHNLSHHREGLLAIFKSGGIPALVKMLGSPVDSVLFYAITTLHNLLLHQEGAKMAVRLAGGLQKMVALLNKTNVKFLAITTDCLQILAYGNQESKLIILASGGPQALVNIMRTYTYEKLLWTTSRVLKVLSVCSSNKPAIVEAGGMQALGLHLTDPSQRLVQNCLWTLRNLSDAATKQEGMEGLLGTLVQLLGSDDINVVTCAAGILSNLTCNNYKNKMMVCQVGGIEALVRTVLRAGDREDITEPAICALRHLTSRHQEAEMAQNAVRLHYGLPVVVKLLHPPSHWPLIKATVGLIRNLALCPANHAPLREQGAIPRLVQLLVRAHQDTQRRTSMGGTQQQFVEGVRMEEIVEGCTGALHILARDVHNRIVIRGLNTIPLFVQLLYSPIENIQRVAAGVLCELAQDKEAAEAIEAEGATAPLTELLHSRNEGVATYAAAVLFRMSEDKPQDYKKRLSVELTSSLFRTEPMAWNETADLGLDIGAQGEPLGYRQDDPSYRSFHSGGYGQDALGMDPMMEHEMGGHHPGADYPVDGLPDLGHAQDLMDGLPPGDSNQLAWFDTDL

EC50 [nM] | Binder
9 | B12
5 | B13
6 | B14
5 | B15
8 | B16
5 | B17
9 | B18
8 | B19
